In experiment [1] the target is Human Type 1 mutCALR (human). In words: cell-based or functional assay.
The target of experiment [2] is recombinant Flag tag_GFP_tev_hmutCALR Type 1 (human). In words: HTRF competition against the mutCALR/MPL complex. On the technique in general: TR-FRET usually uses a lanthanide donor and a delayed reading to cut background.

AB1: CAL2 antibody, Dianova returned an IC50 of inhibition of cell proliferation (BaF3 cells expressing MPL/mutCALR Type 1) in experiment [1] greater than 60 µg/mL.
Turning to CAL2 antibody (Dianova), the concentration at which some signal inhibition was seen in experiment [2] is greater than 100 nM.

Values taken from patent US20230272055A1, “ANTI-MUTANT CALRETICULIN (CALR) ANTIBODIES AND USES THEREOF” (Incyte Corporation, priority 2021, published 2023).
